According to the supplement of paper PMC10065799, “High-throughput profiling of sequence recognition by tyrosine kinases and SH2 domains using bacterial peptide display” (eLife, 2023):

Tests used:
[1] = tested on: AncSZ; assay: phosphorylation enrichment, bacterial display (enrichment ratio); higher = better substrate or ligand; peptides without Tyr show the background
[2] = molecular target: EPHB1 (UniProt P54762); assay: as above
[3] = molecular target: EPHB2 (UniProt P29323); assay: as above
[4] = molecular target: FGFR1 (UniProt P11362); assay: as above
[5] = molecular target: FGFR3 (UniProt P22607); assay: as above
[6] = tested on: Fer (mouse); assay: as above
[7] = molecular target: Fes (UniProt P07332); assay: as above
[8] = molecular target: Fyn (UniProt P06241); assay: as above
[9] = molecular target: Hck (UniProt P08631); assay: as above
[10] = molecular target: Jak2 (UniProt O60674); assay: as above
[11] = molecular target: MERTK (UniProt Q12866); assay: as above
[12] = tested on: c-Abl (mouse); assay: as above
[13] = tested on: c-Src; assay: as above
[14] = molecular target: Grb2 SH2 (UniProt P62993); assay: SH2 binding enrichment of the phosphorylated peptide, bacterial display (enrichment ratio); higher = better substrate or ligand; peptides without Tyr show the background
[15] = molecular target: SHP2-C SH2; assay: as above
[16] = molecular target: c-Src SH2; assay: as above
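Wherever SH2 binding enrichment of the phosphorylated peptide, bacterial display is given: peptide library displayed on the E. coli surface as eCPX fusions, selected cells deep-sequenced, score is each peptide's frequency after selection divided by its frequency in the input.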
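Wherever phosphorylation enrichment, bacterial display is given: 11-residue human phosphosite peptides and single-mutation variants displayed on the E. coli surface, counted by deep sequencing, each peptide's frequency after selection divided by its frequency in the unselected input library; frequency after pTyr selection over input frequency; kinase dosed for 20-30% of maximal phosphorylation in three min.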

Sequence of Fyn (P06241 whole entry, looked up): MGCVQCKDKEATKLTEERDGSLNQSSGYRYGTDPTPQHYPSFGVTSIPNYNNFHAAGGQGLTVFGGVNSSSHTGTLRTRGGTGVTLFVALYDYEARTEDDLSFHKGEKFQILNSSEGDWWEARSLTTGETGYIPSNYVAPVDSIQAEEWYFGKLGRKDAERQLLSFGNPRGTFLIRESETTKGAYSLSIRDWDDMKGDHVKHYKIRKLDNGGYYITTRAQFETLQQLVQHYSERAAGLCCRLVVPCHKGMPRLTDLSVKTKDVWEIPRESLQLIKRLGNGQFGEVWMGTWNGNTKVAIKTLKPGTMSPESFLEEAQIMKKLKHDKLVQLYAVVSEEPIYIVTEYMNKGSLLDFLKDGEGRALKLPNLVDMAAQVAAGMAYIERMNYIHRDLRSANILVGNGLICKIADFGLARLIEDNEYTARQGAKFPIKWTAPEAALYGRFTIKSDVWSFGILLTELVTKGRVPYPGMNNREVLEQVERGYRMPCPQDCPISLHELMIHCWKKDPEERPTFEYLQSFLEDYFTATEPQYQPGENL
Sequence of Grb2 SH2 (P62993 whole entry, looked up): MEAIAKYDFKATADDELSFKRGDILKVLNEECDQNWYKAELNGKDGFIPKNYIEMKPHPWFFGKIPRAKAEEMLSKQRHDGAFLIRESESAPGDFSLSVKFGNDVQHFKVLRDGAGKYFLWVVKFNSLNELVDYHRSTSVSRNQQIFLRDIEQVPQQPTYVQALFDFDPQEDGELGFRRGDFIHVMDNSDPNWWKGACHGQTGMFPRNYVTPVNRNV
Sequence of Jak2 (O60674 whole entry, looked up): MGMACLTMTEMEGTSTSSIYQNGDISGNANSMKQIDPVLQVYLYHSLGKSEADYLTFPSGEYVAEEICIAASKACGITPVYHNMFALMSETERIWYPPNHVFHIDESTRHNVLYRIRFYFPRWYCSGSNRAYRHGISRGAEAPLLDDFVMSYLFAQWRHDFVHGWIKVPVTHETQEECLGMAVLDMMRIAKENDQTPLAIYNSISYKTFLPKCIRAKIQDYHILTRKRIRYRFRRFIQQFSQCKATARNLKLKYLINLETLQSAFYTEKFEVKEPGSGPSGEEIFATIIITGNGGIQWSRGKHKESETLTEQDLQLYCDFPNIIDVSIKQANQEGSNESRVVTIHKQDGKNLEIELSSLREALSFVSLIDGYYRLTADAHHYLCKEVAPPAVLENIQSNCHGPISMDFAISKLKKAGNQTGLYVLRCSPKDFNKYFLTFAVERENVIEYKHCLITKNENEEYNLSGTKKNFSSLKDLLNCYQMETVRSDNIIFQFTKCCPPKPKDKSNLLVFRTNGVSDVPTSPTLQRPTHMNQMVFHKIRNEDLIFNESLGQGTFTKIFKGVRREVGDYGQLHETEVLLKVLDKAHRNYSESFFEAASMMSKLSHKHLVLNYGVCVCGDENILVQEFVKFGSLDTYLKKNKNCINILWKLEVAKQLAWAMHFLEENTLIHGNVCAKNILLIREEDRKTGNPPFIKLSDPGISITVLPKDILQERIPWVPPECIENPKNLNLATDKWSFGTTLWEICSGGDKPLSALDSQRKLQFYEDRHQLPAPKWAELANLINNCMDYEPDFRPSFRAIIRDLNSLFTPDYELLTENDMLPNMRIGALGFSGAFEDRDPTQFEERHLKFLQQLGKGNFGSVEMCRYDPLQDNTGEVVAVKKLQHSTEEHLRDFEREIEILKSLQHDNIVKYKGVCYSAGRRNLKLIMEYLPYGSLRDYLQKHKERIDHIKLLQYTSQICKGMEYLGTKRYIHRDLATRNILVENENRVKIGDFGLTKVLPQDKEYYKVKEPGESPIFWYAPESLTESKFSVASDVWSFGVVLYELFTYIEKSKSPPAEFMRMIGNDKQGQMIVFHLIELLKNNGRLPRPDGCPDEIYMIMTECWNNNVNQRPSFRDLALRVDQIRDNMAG
Sequence of Fes (P07332 whole entry, looked up): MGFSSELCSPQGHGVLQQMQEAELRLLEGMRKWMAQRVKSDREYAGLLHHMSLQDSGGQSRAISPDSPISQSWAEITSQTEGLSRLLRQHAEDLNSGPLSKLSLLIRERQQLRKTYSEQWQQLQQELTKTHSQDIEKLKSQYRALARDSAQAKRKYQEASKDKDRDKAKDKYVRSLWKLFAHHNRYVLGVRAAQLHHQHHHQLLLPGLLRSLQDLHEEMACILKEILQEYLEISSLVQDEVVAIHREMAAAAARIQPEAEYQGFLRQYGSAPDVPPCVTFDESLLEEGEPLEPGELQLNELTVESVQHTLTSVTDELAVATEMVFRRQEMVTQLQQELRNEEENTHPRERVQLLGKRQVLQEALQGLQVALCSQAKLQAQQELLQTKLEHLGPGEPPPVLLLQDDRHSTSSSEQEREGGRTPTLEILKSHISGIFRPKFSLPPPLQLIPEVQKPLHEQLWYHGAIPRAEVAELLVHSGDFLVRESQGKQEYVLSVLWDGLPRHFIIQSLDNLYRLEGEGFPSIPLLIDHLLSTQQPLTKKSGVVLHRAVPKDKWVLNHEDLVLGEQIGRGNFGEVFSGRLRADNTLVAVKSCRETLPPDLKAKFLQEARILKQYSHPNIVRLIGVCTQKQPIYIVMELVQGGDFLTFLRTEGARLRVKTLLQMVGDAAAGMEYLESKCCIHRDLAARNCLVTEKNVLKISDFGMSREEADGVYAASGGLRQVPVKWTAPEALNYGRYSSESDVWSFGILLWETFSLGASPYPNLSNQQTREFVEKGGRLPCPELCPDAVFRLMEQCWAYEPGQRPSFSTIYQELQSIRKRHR
Sequence of Hck (P08631 whole entry, looked up): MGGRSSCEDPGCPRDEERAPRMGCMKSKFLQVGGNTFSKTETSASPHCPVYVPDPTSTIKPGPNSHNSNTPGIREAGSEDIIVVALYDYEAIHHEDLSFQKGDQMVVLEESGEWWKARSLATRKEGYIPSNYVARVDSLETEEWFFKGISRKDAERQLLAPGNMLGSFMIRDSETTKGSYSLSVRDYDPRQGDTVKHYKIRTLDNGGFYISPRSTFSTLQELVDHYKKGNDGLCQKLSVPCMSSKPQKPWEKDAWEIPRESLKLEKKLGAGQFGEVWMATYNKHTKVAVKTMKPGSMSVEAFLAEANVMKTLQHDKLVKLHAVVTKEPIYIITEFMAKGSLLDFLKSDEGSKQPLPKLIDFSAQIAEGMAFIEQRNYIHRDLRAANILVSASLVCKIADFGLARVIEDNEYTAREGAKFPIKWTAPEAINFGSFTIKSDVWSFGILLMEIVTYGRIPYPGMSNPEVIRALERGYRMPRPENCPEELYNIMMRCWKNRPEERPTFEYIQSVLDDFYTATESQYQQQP
Sequence of FGFR1 (P11362 whole entry, looked up): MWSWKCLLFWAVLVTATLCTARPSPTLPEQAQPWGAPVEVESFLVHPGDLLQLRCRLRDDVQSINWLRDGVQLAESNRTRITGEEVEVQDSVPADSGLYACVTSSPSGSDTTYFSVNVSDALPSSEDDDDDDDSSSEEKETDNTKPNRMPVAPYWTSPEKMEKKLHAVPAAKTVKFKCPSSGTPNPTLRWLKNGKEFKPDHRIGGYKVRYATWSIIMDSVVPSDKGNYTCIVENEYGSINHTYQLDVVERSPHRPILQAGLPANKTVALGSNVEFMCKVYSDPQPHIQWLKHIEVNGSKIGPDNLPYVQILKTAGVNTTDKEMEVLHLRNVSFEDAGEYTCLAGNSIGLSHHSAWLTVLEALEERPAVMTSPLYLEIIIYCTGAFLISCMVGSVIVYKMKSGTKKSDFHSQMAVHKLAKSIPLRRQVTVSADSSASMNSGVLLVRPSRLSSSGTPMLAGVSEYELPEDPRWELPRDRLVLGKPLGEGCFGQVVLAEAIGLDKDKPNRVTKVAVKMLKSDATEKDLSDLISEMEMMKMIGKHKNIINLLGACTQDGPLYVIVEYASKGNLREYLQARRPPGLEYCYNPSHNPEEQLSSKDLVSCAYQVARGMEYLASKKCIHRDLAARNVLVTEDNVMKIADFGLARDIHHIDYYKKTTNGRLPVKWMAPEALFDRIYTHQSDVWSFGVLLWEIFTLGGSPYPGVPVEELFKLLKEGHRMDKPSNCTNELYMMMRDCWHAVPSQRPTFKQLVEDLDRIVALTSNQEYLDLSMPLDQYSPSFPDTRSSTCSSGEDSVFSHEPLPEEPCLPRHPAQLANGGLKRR
Sequence of EPHB1 (P54762 whole entry, looked up): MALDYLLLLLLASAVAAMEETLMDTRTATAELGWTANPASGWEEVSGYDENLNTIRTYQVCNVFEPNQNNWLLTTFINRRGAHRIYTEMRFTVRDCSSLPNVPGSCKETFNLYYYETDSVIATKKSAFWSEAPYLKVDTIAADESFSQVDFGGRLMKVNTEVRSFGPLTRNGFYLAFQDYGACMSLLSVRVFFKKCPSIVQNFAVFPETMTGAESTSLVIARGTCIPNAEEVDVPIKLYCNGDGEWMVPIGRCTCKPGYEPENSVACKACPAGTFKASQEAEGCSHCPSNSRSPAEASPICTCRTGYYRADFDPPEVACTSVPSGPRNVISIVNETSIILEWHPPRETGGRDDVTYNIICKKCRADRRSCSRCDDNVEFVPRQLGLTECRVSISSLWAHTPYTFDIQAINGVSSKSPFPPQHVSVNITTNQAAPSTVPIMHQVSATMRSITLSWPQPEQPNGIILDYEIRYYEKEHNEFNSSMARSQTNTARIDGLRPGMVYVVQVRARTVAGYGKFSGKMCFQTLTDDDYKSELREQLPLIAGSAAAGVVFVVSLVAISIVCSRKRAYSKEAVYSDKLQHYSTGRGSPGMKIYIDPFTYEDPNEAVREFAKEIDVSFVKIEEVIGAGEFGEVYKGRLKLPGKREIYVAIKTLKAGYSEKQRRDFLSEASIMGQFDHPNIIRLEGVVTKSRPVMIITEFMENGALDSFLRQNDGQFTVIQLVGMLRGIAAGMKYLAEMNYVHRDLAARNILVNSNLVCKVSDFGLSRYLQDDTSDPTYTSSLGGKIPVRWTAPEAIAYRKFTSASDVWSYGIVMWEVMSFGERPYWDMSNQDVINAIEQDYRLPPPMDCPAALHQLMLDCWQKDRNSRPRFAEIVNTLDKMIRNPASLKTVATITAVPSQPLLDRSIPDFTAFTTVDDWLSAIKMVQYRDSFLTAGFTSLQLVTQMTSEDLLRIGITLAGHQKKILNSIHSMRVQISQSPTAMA

Sequence	phosphorylation enrichment [1]	phosphorylation enrichment [2]	phosphorylation enrichment [3]	phosphorylation enrichment [4]	phosphorylation enrichment [5]	phosphorylation enrichment [6]	phosphorylation enrichment [7]	phosphorylation enrichment [8]	phosphorylation enrichment [9]	phosphorylation enrichment [10]	phosphorylation enrichment [11]	phosphorylation enrichment [12]	phosphorylation enrichment [13]	SH2 binding enrichment [14]	SH2 binding enrichment [15]	SH2 binding enrichment [16]
TSSSSYFDEPV [ARFGAP3_Y356]	1.1	0.549	0.576	0.486	0.749	0.506	1.01	0.478	0.5	0.98	0.421	0.841	0.47	0.762	0.827	0.569
GTQCSYLLSRK [UGT3A1_Y123]	0.634	0.427	0.554	0.482	0.441	0.43	0.676	0.329	0.392	0.655	0.436	0.569	0.42	1.03	0.833	0.704
FPDFVYKRIKA [DPYSL2_Y479]	0.682	0.421	0.468	0.495	0.543	0.424	0.773	0.494	0.443	0.793	0.377	0.362	0.344	0.79	0.622	0.41
EYKDAYTFAAD [BRDT_Y335_K336T]	1.15	0.553	0.595	0.511	0.74	0.555	1.09	0.833	0.548	1.11	0.51	0.556	1.29	0.876	0.727	0.61
RRGMPYGGCGD [TGM1_Y312_R315C]	0.782	0.551	0.486	0.634	0.573	0.409	0.489	0.522	0.659	0.5	0.454	0.595	0.486	0.544	0.57	0.327
TSESSYYKSLN [NGEF_Y288_A286S]	0.76	0.55	0.668	0.64	0.651	0.482	0.817	0.469	0.496	0.771	0.564	0.499	0.518	0.892	0.64	0.65
QDDTVYMGKVT [DCTN1_Y1244]	1.96	0.8	0.918	0.789	1.17	2.72	2.4	0.958	1.24	1.31	0.714	1.37	0.917	1.04	0.974	0.649
REDIFYTSKLW [AKR1C2_Y81]	1.07	0.978	0.796	0.592	1.01	0.543	1.12	0.692	0.77	0.947	0.645	0.607	0.438	1.04	0.838	0.598
ANNEFYFRVCA	1.28	0.563	0.548	0.445	0.824	0.536	1.43	0.483	0.516	1.39	0.44	0.923	0.412	0.716	0.567	0.37
CTNPRYLAAGS [RABL3_Y185]	0.794	0.496	0.486	0.507	0.646	0.629	0.767	0.426	0.357	0.915	0.415	0.787	0.467	0.767	0.609	0.444
LMVFEYMRHGN [NTRK1_Y591_D596N]	0.998	0.797	0.692	0.55	0.707	0.466	1.44	0.664	0.597	1.54	0.457	0.912	0.539	1.65	1.89	1.19
IFCIQYNICAF [MYH4_Y820_R823C]	1.28	0.686	0.9	0.451	0.807	0.538	1.53	0.421	0.45	1.56	0.421	1.14	0.513	1.7	1.47	1.21
FSCLPYRRLAY [SLC52A2_Y305_G306R]	0.95	0.613	0.547	0.656	0.758	0.5	0.671	0.691	0.663	0.837	0.621	1.22	0.766	0.942	0.653	0.448
PEACDYGLGGG [GSTO1_Y239]	1.78	1.38	0.887	1.19	0.816	0.656	1.34	0.691	0.739	1.11	0.635	1.28	1.19	0.912	0.559	0.693
NTFENYWPFFQ [GATM_Y103_K102N_YF]	1.34	9.64	5.8	12.4	10.5	0.894	1.18	3.18	5.44	3.43	5.46	1.22	4.41	1.06	0.949	0.651
FIPSNYVAEDR [FRK_Y104_YF]	0.74	0.386	0.443	0.412	0.502	0.427	0.657	0.394	0.411	0.564	0.399	0.431	0.42	0.82	0.868	0.579
YYHCTYKQRMI [CLEC12A_Y242_K244Q]	1.64	0.63	0.527	9.07	7.01	0.452	1.01	0.693	1.1	1.73	3.68	1.4	0.773	1.41	0.953	1.41

Sequence	phosphorylation enrichment [1]	phosphorylation enrichment [2]	phosphorylation enrichment [3]	phosphorylation enrichment [4]	phosphorylation enrichment [5]	phosphorylation enrichment [6]	phosphorylation enrichment [7]	phosphorylation enrichment [8]	phosphorylation enrichment [9]	phosphorylation enrichment [10]	phosphorylation enrichment [11]	phosphorylation enrichment [12]	phosphorylation enrichment [13]	SH2 binding enrichment [14]	SH2 binding enrichment [15]	SH2 binding enrichment [16]
VHVEVYDRPSP	1.39	0.791	0.668	0.438	0.761	0.802	1.02	0.855	1.95	1.01	0.531	1.33	0.597	0.803	0.777	0.585
RSHRSYSCQVM [IGLL1_Y192_R189H]	0.609	0.696	0.512	0.637	0.671	0.416	0.941	0.508	0.559	0.57	0.526	0.594	0.604	1.29	0.993	1.16
SEHLTYLEFKS [RASGRP1_Y215]	1.41	1.02	0.838	0.729	1.16	0.62	1.58	6.61	5.7	1.33	0.459	1.09	5.56	0.716	0.52	0.409
TIMTDYNPNYC [ALK_Y1092]	1.33	0.999	0.531	0.715	0.904	0.548	1.26	0.439	0.66	1.24	0.6	0.923	0.552	1.11	0.654	0.663
ENFSEYQEIAV [HEMGN_Y150]	1.51	2.29	1.24	1.59	1.38	1.4	1.24	0.586	0.984	1.28	0.507	0.957	0.616	0.98	0.663	0.627
KKKKQYKDKYL [CASK_Y708]	0.614	0.53	0.393	0.506	0.471	0.587	0.534	0.454	0.548	0.475	0.631	0.837	0.728	0.872	0.244	0.275
FLNSIYKSRDE [ROS1_Y2227]	0.566	0.365	0.517	0.439	0.507	0.342	0.642	0.444	0.519	0.612	0.357	0.499	0.481	1	0.954	0.612
VSVVDYVEPSP [TXNRD2_Y70_A66S]	1.21	0.595	0.547	0.804	0.629	0.521	1.05	0.494	0.565	0.725	0.485	0.576	0.489	0.888	0.757	0.58
SSPVPYLSPET [TJP1_Y931]	0.789	0.442	0.502	0.482	0.627	0.453	0.835	0.541	0.445	0.719	0.409	0.646	0.422	0.851	0.66	0.507
RRLEPYGENFN [APOA4_Y310_V307L]	1.04	0.398	0.317	0.266	0.493	0.315	0.732	0.281	0.25	0.681	0.385	0.371	0.463	0.822	0.286	0.527
EMTAEYACTRK [ACAD9_Y325]	0.703	0.406	0.492	0.397	0.551	0.497	0.706	0.434	0.627	0.499	0.457	0.603	0.412	1.22	1.03	0.692
STEAIYWRFSK [SH3PXD2B_Y42_R43W_YF]	1.2	1.05	0.74	0.913	1.13	0.564	1.51	3.69	2.51	1.29	1.32	7.78	2.98	0.606	0.495	0.434
GSRGKYSSGFR [ATM_Y332]	0.512	0.318	0.36	0.657	0.453	0.793	0.603	0.38	0.338	0.62	0.559	0.547	0.649	1.15	0.912	0.833
KFDLMYAKWAF [TUBA3E_Y399]	1.18	0.783	0.784	0.669	0.866	5.85	1.26	1.43	2.16	1	3.02	1.68	1.98	1.24	0.919	1.18
SDPIVYTLENI [EMR1_Y534_I533V]	1.09	0.465	0.523	0.553	0.755	2.35	1.69	4.76	0.676	1.2	0.546	0.873	4.06	0.768	0.709	0.563
KLGDVYVNVAF [PGK1_Y161_D164V]	1.13	0.801	0.632	1.01	1.01	0.661	1.08	0.645	0.706	0.965	0.471	0.727	0.584	1.16	0.845	0.636
